Changes are numbered by the printed parent chain. Names and notes keep the numbering of the source.
B1: C. imbricata cHPL (catalase-related hydroperoxide lyase domain) (Capnella imbricata; S177L/Y176N) (protein)
chain: MVWKNFGYEIFAEKFGKDELEKRIKDEHTAPPESPLFGSLKLKMKKEKFKILFTLRTTMEGFRRPTHTVATGGLGEITIVSDPKFPEHEFYRAGRKFPARLRHANLKLLDDAGSDARSFSIKFADNDSESPMDIVMNTGEANIFWNTSSFEDFVSSSAGESAAKEYVYKNPYYYYNLIEALRRAPETFAHLYYYSQLTMHFKAKDGKVRYCRYRAIPGDADIKEEEESGRLTEEEQRNVWIRSRHQNEKRPDDYLRKEYVERLGKGPVNYRLQIQIHEASPDDTATIFHAGIMWNKETHPWFDLAKVSIKTPLSPDVLERTSFNIVNQPESLGLLEAKSPEDYNSIGQIRVAVYKWIQHLRKLKVGSLVPTGQN
notes: N-terminal cHPL domain of the HPL-LOX fusion protein, without the LOX domain; cHPL-His4 in pET11a; E. coli BL21(DE3), Ni-NTA; heme protein; monomer 45 kDa plus oligomers 440-670 kDa
B2: C. imbricata cHPL (catalase-related hydroperoxide lyase domain) (Capnella imbricata; E60K/M59L) (protein)
chain: B1 chain with M59L, E60K, N176Y, L177S
notes: as for B1
B3: C. imbricata cAOS (cAOS-H4 domain) (Capnella imbricata) (protein)
chain: MTWKNFGFDIFAERFGKDKLEKRIKDERTPPPDSPVFGGLTLRMKIEKFKTLFTLGTTLKGFRRATHTVGTGGIGEVTVVDDPKFPEHEFFKAGRKLPVRLRHANLKYPDDAGADARSFSIKFSDNDSESPLDIVMNTGEANIFWHTSSLEDFVPVKEGDSAKEYVYKNPYYYYNLVEALRRAPNTFAHLYYYSQVTMHFKAKDGKERYCRYRAIPGDVDIKEEEESGRLTEEEQRNIWTFSRYETEKRPDDYLRKEYVERLKKGPVNYRLQIQIHDVSPNDTATIFHAGILWDKETHPWFDLAKVSITTPMSPDVLERTNFNIVNQPKSLGLLDAKSPEDYNSIGQIRVSVYNWVQHLRKLKLGSLIPAGQN
notes: N-terminal cAOS domain of the AOS-LOX fusion protein, without the LOX domain; cAOS-H4 (His4 tag) in pET11a; E. coli BL21(DE3), Ni-NTA; heme protein; monomer
B4: C. imbricata cAOS (cAOS-H4 domain) (Capnella imbricata; L150F) (protein)
chain: B3 chain with L150F
notes: as for B3
B5: C. imbricata cHPL (catalase-related hydroperoxide lyase domain) (Capnella imbricata; F150L) (protein)
chain: B1 chain with F150L, N176Y, L177S
notes: as for B1
B6: C. imbricata cHPL (catalase-related hydroperoxide lyase domain) (Capnella imbricata; P65A) (protein)
chain: B1 chain with P65A, N176Y, L177S
notes: as for B1
B7: C. imbricata cHPL (catalase-related hydroperoxide lyase domain) (Capnella imbricata; I357V) (protein)
chain: B1 chain with N176Y, L177S, I357V
notes: as for B1
B8: C. imbricata cHPL (catalase-related hydroperoxide lyase domain) (Capnella imbricata; R56G) (protein)
chain: B1 chain with R56G, N176Y, L177S
notes: as for B1

The molecules below were run on CCCCC/C=C\C/C=C\C=C\[C@@H](C/C=C\CCCC(=O)O)OO (assay: purified protein). Conditions: 50 mM Tris pH 8.0, 100 mM NaCl, 1 mM CaCl2, 20 °C, 5–50 μM substrate.
Type: biochemical, Capnella imbricata

Point of comparison: B3, Km 46.6 ± 9.0 µM. Against it:
- B1 — 12-fold lower, 3.9 ± 0.9 µM
- B2 — 6.4-fold lower, 7.3 ± 1.9 µM
- B4 — 7-fold lower, 6.7 ± 1.0 µM
- B5 — 26-fold lower, 1.8 ± 0.4 µM
- B6 — 3-fold lower, 15.3 ± 2.5 µM
- B7 — 9.3-fold lower, 5.0 ± 1.0 µM
- B8 — 2.5-fold lower, 19.0 ± 4.0 µM

Point of comparison: B6, kcat 40.3 ± 2.5 s⁻¹. Against it:
- B1 — 5.4-fold higher, 218 ± 13.8 s⁻¹
- B2 — 5.4-fold lower, 7.5 ± 0.6 s⁻¹
- B3 — 46-fold higher, 1840 ± 196 s⁻¹
- B4 — 5-fold higher, 203 ± 8.1 s⁻¹
- B5 — within 1.5-fold, 49.6 ± 1.5 s⁻¹
- B7 — 1.6-fold higher, 63.9 ± 3.2 s⁻¹
- B8 — 7.5-fold higher, 304 ± 22.8 s⁻¹

Point of comparison: B7, kcat/Km 1.28e+07 M⁻¹ s⁻¹. Against it:
- B1 — 4.4-fold higher, 5.6e+07 M⁻¹ s⁻¹
- B2 — 13-fold lower, 1e+06 M⁻¹ s⁻¹
- B3 — 3.1-fold higher, 3.94e+07 M⁻¹ s⁻¹
- B4 — 2.4-fold higher, 3.03e+07 M⁻¹ s⁻¹
- B5 — 2.2-fold higher, 2.76e+07 M⁻¹ s⁻¹
- B6 — 4.9-fold lower, 2.6e+06 M⁻¹ s⁻¹
- B8 — within 1.5-fold, 1.6e+07 M⁻¹ s⁻¹

What follows are molecules tested against T1, C. imbricata cHPL (catalase-related hydroperoxide lyase domain) (Capnella imbricata, UniProt W8JJ08) (assay: RP-HPLC radiometric product analysis). Conditions: 20 μM [1-14C]-AA-derived 8R-HpETE; labelled compound.
T1 construct: gene AOS-LOXb; N-terminal cHPL domain of the HPL-LOX fusion protein, without the LOX domain; cHPL-His4 in pET11a; E. coli BL21(DE3), Ni-NTA; heme protein; monomer 45 kDa plus oligomers 440-670 kDa
Type: biochemical

T1 sequence (W8JJ08 entry or part of it): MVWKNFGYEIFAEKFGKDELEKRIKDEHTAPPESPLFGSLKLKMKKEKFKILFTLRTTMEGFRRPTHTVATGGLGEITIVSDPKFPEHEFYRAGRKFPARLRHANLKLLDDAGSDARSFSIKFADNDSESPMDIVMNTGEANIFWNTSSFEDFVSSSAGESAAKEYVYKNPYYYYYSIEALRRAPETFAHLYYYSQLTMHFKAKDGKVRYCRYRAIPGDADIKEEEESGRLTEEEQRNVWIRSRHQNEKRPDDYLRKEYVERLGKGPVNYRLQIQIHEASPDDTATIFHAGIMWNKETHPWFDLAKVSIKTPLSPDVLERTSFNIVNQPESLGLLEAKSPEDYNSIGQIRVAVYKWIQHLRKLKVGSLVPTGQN

For `CCCCC/C=C\C/C=C\C=C\[C@@H](C/C=C\CCCC(=O)O)OO` [8R-HpETE], the “RP-HPLC radiometric product analysis” value was “Wt cHPL catalyzes the formation of C8-oxo acid and C12 aldehyde”.

Reference: article PMC5617202, “Structural and functional insights into the reaction specificity of catalase-related hydroperoxide lyase: A shift from lyase activity to allene oxide synthase by site-directed mutagenesis” (PLoS ONE, 2017)
